Experimental findings from patent publication US20150099269, “Hybridization- Independent Labeling Of Repetitive DNA Sequence In Human Chromsomes” (University of Massachusetts, published 2015) are described below.

For series [1], the target named is T1, TALE-TelR15 Green-Lysine labelled, no FP (artificial).
T1 chain: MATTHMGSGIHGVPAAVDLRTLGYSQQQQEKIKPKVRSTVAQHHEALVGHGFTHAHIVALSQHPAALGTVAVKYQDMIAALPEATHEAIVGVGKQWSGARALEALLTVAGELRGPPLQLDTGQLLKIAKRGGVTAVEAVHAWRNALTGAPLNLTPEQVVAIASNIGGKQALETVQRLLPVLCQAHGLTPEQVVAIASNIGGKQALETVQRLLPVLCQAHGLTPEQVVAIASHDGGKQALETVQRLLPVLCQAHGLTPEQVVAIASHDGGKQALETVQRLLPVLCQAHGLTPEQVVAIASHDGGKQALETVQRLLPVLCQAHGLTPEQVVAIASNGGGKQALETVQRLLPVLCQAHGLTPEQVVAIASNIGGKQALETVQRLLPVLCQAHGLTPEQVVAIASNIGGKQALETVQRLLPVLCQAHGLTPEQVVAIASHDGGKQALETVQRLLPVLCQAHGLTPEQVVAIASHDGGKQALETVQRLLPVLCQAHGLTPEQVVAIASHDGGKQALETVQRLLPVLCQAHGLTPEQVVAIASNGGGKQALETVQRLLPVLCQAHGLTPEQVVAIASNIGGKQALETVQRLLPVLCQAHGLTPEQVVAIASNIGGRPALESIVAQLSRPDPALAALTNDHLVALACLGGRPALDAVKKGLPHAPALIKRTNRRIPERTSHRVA
The experiment in a line: fixed U2OS cells, compared with the mCherry fusion. The note with it: tags: internal lysines labelled with green dye (Promega), pET30a vector.

The target of series [2] is T2, TALE-TelR15 (artificial).
T2 chain: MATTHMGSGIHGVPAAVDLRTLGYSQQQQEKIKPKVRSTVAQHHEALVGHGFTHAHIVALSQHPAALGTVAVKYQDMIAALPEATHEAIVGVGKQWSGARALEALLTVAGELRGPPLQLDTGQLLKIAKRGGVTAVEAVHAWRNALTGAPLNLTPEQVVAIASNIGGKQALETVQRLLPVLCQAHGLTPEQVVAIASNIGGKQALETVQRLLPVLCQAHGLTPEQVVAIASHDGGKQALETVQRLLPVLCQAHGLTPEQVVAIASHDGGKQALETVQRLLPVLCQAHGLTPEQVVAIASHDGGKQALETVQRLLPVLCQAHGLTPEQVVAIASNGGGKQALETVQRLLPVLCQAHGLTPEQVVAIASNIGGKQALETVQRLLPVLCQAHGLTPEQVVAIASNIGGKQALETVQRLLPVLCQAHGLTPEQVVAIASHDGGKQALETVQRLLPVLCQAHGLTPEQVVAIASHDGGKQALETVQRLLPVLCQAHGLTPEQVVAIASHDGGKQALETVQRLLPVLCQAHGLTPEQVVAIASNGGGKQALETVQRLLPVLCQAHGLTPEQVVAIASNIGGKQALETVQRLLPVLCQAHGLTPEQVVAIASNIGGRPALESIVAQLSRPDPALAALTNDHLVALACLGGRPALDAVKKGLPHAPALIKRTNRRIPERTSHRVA
The experiment in a line: methanol-fixed, 2N HCl treated cells, room temperature; signal correlates with telomere length (HeLa 1.3 higher than HeLa S3). The following applies: tags: fused sfGFP, mTagBFP2, mTFP1, YPet or mCherry (pT7CFE1-His vector). On the procedure:
Cells grown on coverslips were fixed in ice-cold methanol for 10 min at −20° C. All subsequent steps were carried out at room temperature. The fixed cells were incubated with 2N HCl for 5 min and then washed twice with PBS for 5 min each and then incubated with a given TALEColor probe as a 1:10 dilution from the coupled in vitro transcription-translation reactions mixtures for 30 min. The cells were then washed once with PBS for 5 min. Coverslips were mounted in Prolong Antifade (Molecular Probes, Eugene, Oreg.), and images were captured with the fluorescence microscopy system described above.

B1: TelR15 target (dsDNA)
DNA 1: TAACCCTAACCCTAA
DNA 2: TTAGGGTTAGGGTTA
Consider B1, for which the binding result in series [1] and in series [2] was “binds” throughout.
